Data set [1] concerns HeLa Kyoto. Description: solubility in G1/S (NP-40 vs SDS abundance) (log2 ratio); higher = more soluble. Particulars: cell cycle stage: G1/S.
Data set [2] concerns HeLa Kyoto. Description: melting temperature (median over replicates), in situ; higher = more thermally stable.
Data set [3] relates to HeLa Kyoto. Description: solubility change mitosis vs G1/S (difference of NP-40 vs SDS log2 ratios) (log2 ratio difference); higher = more soluble in mitosis.
Data set [4] relates to HeLa Kyoto. The experiment in a line: thermal stability score vs G1/S (z-score of summed log2 fold changes over temperatures); higher = more thermally stable than in G1/S.
Where [5] appears, read: cell cycle stage: early G1 (4.5 h after nocodazole release).
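For melting temperature (median over replicates), in situ in this document: HeLa Kyoto cells synchronized by double thymidine or nocodazole block, proteins quantified by TMT10plex mass spectrometry, three independent biological replicates.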
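For solubility change mitosis vs G1/S (difference of NP-40 vs SDS log2 ratios) in this document: synchronized HeLa Kyoto cells (double thymidine block for G1/S, nocodazole release for mitosis), protein amounts in NP-40 versus SDS lysates quantified by mass spectrometry, three biological replicates.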
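For solubility in G1/S (NP-40 vs SDS abundance) in this document: HeLa Kyoto cells arrested at G1/S by double thymidine block, proteins quantified by TMT10plex mass spectrometry in mild NP-40 versus SDS extracts, three biological replicates.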
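For thermal stability score vs G1/S (z-score of summed log2 fold changes over temperatures) in this document: synchronized HeLa Kyoto cells, proteins quantified by TMT10plex mass spectrometry, three biological replicates, mitosis taken 0.5 h after nocodazole release, G1/S directly after double thymidine block.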

For “MRRFLRPGHDPVRERLKRDLFQFNKTVEHGFPHQPSALGYSPSLRILAIGTRSGAIKLYGAPGVEFMGLHQENNAVTQIHLLPGQCQLVTLLDDNSLHLWSLKVKGGASELQEDESFTLRGPPGAAPSATQITVVLPHSSCELLYLGTESGNVFVVQLPAFRALEDRTISSDAVLQRLPEEARHRRVFEMVEALQEHPRDPNQILIGYSRGLVVIWDLQGSRVLYHFLSSQQLENIWWQRDGRLLVSCHSDGSYCQWPVSSEAQQPEPLRSLVPYGPFPCKAITRILWLTTRQGLPFTIFQGGMPRASYGDRHCISVIHDGQQTAFDFTSRVIGFTVLTEADPAATFDDPYALVVLAEEELVVIDLQTAGWPPVQLPYLASLHCSAITCSHHVSNIPLKLWERIIAAGSRQNAHFSTMEWPIDGGTSLTPAPPQRDLLLTGHEDGTVRFWDASGVCLRLLYKLSTVRVFLTDTDPNENFSAQGEDEWPPLRKVGSFDPYSDDPRLGIQKIFLCKYSGYLAVAGTAGQVLVLELNDEAAEQAVEQVEADLLQDQEGYRWKGHERLAARSGPVRFEPGFQPFVLVQCQPPAVVTSLALHSEWRLVAFGTSHGFGLFDHQQRRQVFVKCTLHPSDQLALEGPLSRVKSLKKSLRQSFRRMRRSRVSSRKRHPAGPPGEAQEGSAKAERPGLQNMELAPVQRKIEARSAEDSFTGFVRTLYFADTYLKDSSRHCPSLWAGTNGGTIYAFSLRVPPAERRMDEPVRAEQAKEIQLMHRAPVVGILVLDGHSVPLPEPLEVAHDLSKSPDMQGSHQLLVVSEEQFKVFTLPKVSAKLKLKLTALEGSRVRRVSVAHFGSRRAEDYGEHHLAVLTNLGDIQVVSLPLLKPQVRYSCIRREDVSGIASCVFTKYGQGFYLISPSEFERFSLSTKWLVEPRCLVDSAETKNHRPGNGAGPKKAPSRARNSGTQSDGEEKQPGLVMERALLSDERVLKEIQSTLEGDRGSGNWRSHRAAVGCSLSNGGAE [LLGL2]”, the “solubility in G1/S (log2)” value in the data set with HeLa Kyoto [1] is -0.27. Besides, the melting temperature with HeLa Kyoto [2] (cell cycle stage: G1/S) was 51.1 °C; with HeLa Kyoto [2] (cell cycle stage: mitosis) it was 51.5 °C. Further, the “solubility change mitosis (log2)” value in the data set with HeLa Kyoto [3] was -0.0143. The thermal stability score was -1.83 in the data set on HeLa Kyoto [4] (setting [5]) and -2.52 in the data set on HeLa Kyoto [4] (cell cycle stage: mitosis).

As for “MRRLGPFHPRVHWAAPPSLSSGLHRLLFLRGTRIPSSTTLSPPRHDSLSLDGGTVNPPRVREPTGREAFGPSPASSDWLPARWRNGRGGRPRARLCSGWTAAEEARRNPTLGGLLGRQRLLLRMGGGRLGAPMERHGRASATSVSSAGEQAAGDPEGRRQEPLRRRASSASVPAVGASAEGTRRDRLGSYSGPTSVSRQRVESLRKKRPLFPWFGLDIGGTLVKLVYFEPKDITAEEEEEEVESLKSIRKYLTSNVAYGSTGIRDVHLELKDLTLCGRKGNLHFIRFPTHDMPAFIQMGRDKNFSSLHTVFCATGGGAYKFEQDFLTIGDLQLCKLDELDCLIKGILYIDSVGFNGRSQCYYFENPADSEKCQKLPFDLKNPYPLLLVNIGSGVSILAVYSKDNYKRVTGTSLGGGTFFGLCCLLTGCTTFEEALEMASRGDSTKVDKLVRDIYGGDYERFGLPGWAVASSFGNMMSKEKREAVSKEDLARATLITITNNIGSIARMCALNENINQVVFVGNFLRINTIAMRLLAYALDYWSKGQLKALFSEHEGYFGAVGALLELLKIP [PANK2]”, the “solubility in G1/S (log2)” value with HeLa Kyoto [1] stood at 0.04. The figures for the melting temperature with HeLa Kyoto [2] (cell cycle stage: G1/S) and in the data set with HeLa Kyoto [2] (cell cycle stage: mitosis) were 53.1 °C and 55.1 °C, respectively. Also, the “solubility change mitosis (log2)” value with HeLa Kyoto [3] is -0.196. The thermal stability score in the data set on HeLa Kyoto [4] (setting [5]) amounted to 0.0148; with HeLa Kyoto [4] (cell cycle stage: mitosis), 0.653.

As to “MRRVTLFLNGSPKNGKVVAVYGTLSDLLSVASSKLGIKATSVYNGKGGLIDDIALIRDDDVLFVCEGEPFIDPQTDSKPPEGLLGFHTDWLTLNVGGRYFTTTRSTLVNKEPDSMLAHMFKDKGVWGNKQDHRGAFLIDRSPEYFEPILNYLRHGQLIVNDGINLLGVLEEARFFGIDSLIEHLEVAIKNSQPPEDHSPISRKEFVRFLLATPTKSELRCQGLNFSGADLSRLDLRYINFKMANLSRCNLAHANLCCANLERADLSGSVLDCANLQGVKMLCSNAEGASLKLCNFEDPSGLKANLEGANLKGVDMEGSQMTGINLRVATLKNAKLKNCNLRGATLAGTDLENCDLSGCDLQEANLRGSNVKGAIFEEMLTPLHMSQSVR [KCTD9]”, the “solubility in G1/S (log2)” value in the data set on HeLa Kyoto [1] is 0.0627. The melting temperature in the data set with HeLa Kyoto [2] (cell cycle stage: G1/S) turned out to be 52.3 °C; in the data set on HeLa Kyoto [2] (cell cycle stage: mitosis), 51 °C. For the same sequence, in the data set with HeLa Kyoto [3], the “solubility change mitosis (log2)” value was -0.2. Besides, the thermal stability score with HeLa Kyoto [4] (setting [5]) is -0.393; with HeLa Kyoto [4] (cell cycle stage: mitosis), -1.4.

On to “MRSLLLLSAFCLLEAALAAEVKKPAAAAAPGTAEKLSPKAATLAERSAGLAFSLYQAMAKDQAVENILVSPVVVASSLGLVSLGGKATTASQAKAVLSAEQLRDEEVHAGLGELLRSLSNSTARNVTWKLGSRLYGPSSVSFADDFVRSSKQHYNCEHSKINFRDKRSALQSINEWAAQTTDGKLPEVTKDVERTDGALLVNAMFFKPHWDEKFHHKMVDNRGFMVTRSYTVGVMMMHRTGLYNYYDDEKEKLQIVEMPLAHKLSSLIILMPHHVEPLERLEKLLTKEQLKIWMGKMQKKAVAISLPKGVVEVTHDLQKHLAGLGLTEAIDKNKADLSRMSGKKDLYLASVFHATAFELDTDGNPFDQDIYGREELRSPKLFYADHPFIFLVRDTQSGSLLFIGRLVRPKGDKMRDEL [SERPINH1]”, for which the “solubility in G1/S (log2)” value in the data set on HeLa Kyoto [1] came to 0.232. In addition, the melting temperature in the data set on HeLa Kyoto [2] (cell cycle stage: G1/S) was 54.2 °C; with HeLa Kyoto [2] (cell cycle stage: mitosis) it was 55.2 °C. The “solubility change mitosis (log2)” value with HeLa Kyoto [3] is -0.0819. In addition, the thermal stability score in the data set on HeLa Kyoto [4] (setting [5]) is 4.47; in the data set with HeLa Kyoto [4] (cell cycle stage: mitosis), 4.77.

Take “MRSRSNSGVRLDGYARLVQQTILCYQNPVTGLLSASHEQKDAWVRDNIYSILAVWGLGMAYRKNADRDEDKAKAYELEQNVVKLMRGLLQCMMRQVAKVEKFKHTQSTKDSLHAKYNTATCGTVVGDDQWGHLQVDATSLFLLFLAQMTASGLRIIFTLDEVAFIQNLVFYIEAAYKVADYGMWERGDKTNQGIPELNASSVGMAKAALEAIDELDLFGAHGGRKSVIHVLPDEVEHCQSILFSMLPRASTSKEIDAGLLSIISFPAFAVEDVNLVNVTKNEIISKLQGRYGCCRFLRDGYKTPREDPNRLHYDPAELKLFENIECEWPVFWTYFIIDGVFSGDAVQVQEYREALEGILIRGKNGIRLVPELYAVPPNKVDEEYKNPHTVDRVPMGKVPHLWGQSLYILSSLLAEGFLAAGEIDPLNRRFSTSVKPDVVVQVTVLAENNHIKDLLRKHGVNVQSIADIHPIQVQPGRILSHIYAKLGRNKNMNLSGRPYRHIGVLGTSKLYVIRNQIFTFTPQFTDQHHFYLALDNEMIVEMLRIELAYLCTCWRMTGRPTLTFPISRTMLTNDGSDIHSAVLSTIRKLEDGYFGGARVKLGNLSEFLTTSFYTYLTFLDPDCDEKLFDNASEGTFSPDSDSDLVGYLEDTCNQESQDELDHYINHLLQSTSLRSYLPPLCKNTEDRHVFSAIHSTRDILSVMAKAKGLEVPFVPMTLPTKVLSAHRKSLNLVDSPQPLLEKVPESDFQWPRDDHGDVDCEKLVEQLKDCSNLQDQADILYILYVIKGPSWDTNLSGQHGVTVQNLLGELYGKAGLNQEWGLIRYISGLLRKKVEVLAEACTDLLSHQKQLTVGLPPEPREKIISAPLPPEELTKLIYEASGQDISIAVLTQEIVVYLAMYVRAQPSLFVEMLRLRIGLIIQVMATELARSLNCSGEEASESLMNLSPFDMKNLLHHILSGKEFGVERSVRPIHSSTSSPTISIHEVGHTGVTKTERSGINRLRSEMKQMTRRFSADEQFFSVGQAASSSAHSSKSARSSTPSSPTGTSSSDSGGHHIGWGERQGQWLRRRRLDGAINRVPVGFYQRVWKILQKCHGLSIDGYVLPSSTTREMTPHEIKFAVHVESVLNRVPQPEYRQLLVEAIMVLTLLSDTEMTSIGGIIHVDQIVQMASQLFLQDQVSIGAMDTLEKDQATGICHFFYDSAPSGAYGTMTYLTRAVASYLQELLPNSGCQMQ [PHKA2]”: in the data set with HeLa Kyoto [1], the “solubility in G1/S (log2)” value was found to be 0.00161. Also, the melting temperature is 52.6 °C in the data set with HeLa Kyoto [2] (cell cycle stage: G1/S) and 51.7 °C in the data set on HeLa Kyoto [2] (cell cycle stage: mitosis). In addition, the “solubility change mitosis (log2)” value in the data set with HeLa Kyoto [3] is -0.229. Further, the thermal stability score is 0.315 in the data set on HeLa Kyoto [4] (setting [5]) and -0.217 in the data set with HeLa Kyoto [4] (cell cycle stage: mitosis).

These data come from the supplement of paper PMC5998384.
